Reference: patent publication US20160024208A1 (Regeneron, published 2016)
Substitutions are numbered along the chain they refer to. Blank lines part the entries; values can stand above or below the binder they belong to.

Assays:
[1] = biological target: T1, Native Nav1.7 (3-3) peptide, human (human); test: SPR, captured antibody, peptide analyte
T1 construct: Synthetic peptide, unbiotinylated; also called Human Nav1.7 3-3 native; Nav1.7 3-3 native peptide
T1 peptide: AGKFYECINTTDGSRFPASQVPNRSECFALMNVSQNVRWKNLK
Summary of the method: (§1)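 Biacore SPR: antibody captured via Fc on anti-Fc surface, Nav1.7 loop peptides injected as analyte at several concentrations. Double-referenced sensorgrams globally fitted to a 1:1 model; KD = kd/ka, t1/2 = ln2/kd.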

[2] = biological target: T2, C-Term Biotin Nav1.7 (3-3) peptide, rat (rat, C-terminal biotin attached via a G4S linker); test: SPR, captured antibody, peptide analyte
T2 construct: Synthetic peptide; also called Rat Nav1.7 3-3 C-term biotin
T2 peptide: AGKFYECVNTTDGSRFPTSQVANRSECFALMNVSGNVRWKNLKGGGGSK
Summary of the method: as §1

[3] = biological target: T3, C-term Biotin Nav1.7 (3-3) peptide, human (human, C-terminal biotin attached via a G4S linker); test: SPR, captured biotin-peptide, antibody analyte
T3 construct: Synthetic peptide; also called Human Nav1.7 3-3 C-term biotin
T3 peptide: T2 peptide with V8I, T18A, A22P, G35Q

[4] = biological target: T4, C-term Biotin Nav1.7 (3-1) peptide, human (human, not fully specified; C-terminal biotin attached via a G4S linker); test: SPR, captured biotin-peptide, antibody analyte
T4 construct: Synthetic peptide; also called Human Nav1.7 3-1 C-term biotin
T4 peptide: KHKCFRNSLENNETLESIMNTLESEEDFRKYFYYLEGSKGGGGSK

[5] = biological target: T5, N-Term Biotin Nav1.7 (3-1) peptide, mouse (mouse, not fully specified; N-terminal biotin attached via a G4S linker); test: SPR, captured antibody, peptide analyte
T5 construct: Synthetic peptide; also called Mouse Nav1.7 3-1 N-term biotin
T5 peptide: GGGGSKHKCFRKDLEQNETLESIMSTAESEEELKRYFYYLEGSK
Summary of the method: as §1

[6] = biological target: T6, N-Term Biotin Nav1.7 (3-1) peptide, mulatta (mulatta (monkey), not fully specified; N-terminal biotin attached via a G4S linker); test: SPR, captured antibody, peptide analyte
T6 construct: Synthetic peptide; also called Mulatta Nav1.7 3-1 N-term biotin; monkey
T6 peptide: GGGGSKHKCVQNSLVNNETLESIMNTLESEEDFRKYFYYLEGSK
Summary of the method: as §1

[7] = biological target: T7, Native Nav1.7 (3-1) peptide, rat (rat); test: SPR, captured antibody, peptide analyte
T7 construct: Synthetic peptide; also called Rat Nav1.7 3-1 native
T7 peptide: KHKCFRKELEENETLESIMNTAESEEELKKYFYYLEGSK
Summary of the method: as §1

[8] = biological target: T8, Native Nav1.7 (3-1) peptide, human (human); test: SPR, captured antibody, peptide analyte
T8 construct: Synthetic peptide (Celtek), unbiotinylated; also called Human Nav1.7 3-1 native; Nav1.7 3-1 native peptide
T8 peptide: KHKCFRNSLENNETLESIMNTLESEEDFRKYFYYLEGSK
Summary of the method: as §1

[9] = biological target: T9, full-length human Nav1.7 fused at its N-terminus to GFP, expressed in HEK293 cells (human, UniProt Q15858 1-1988); test: flow cytometry; % stained hNav1.7-GFP-HEK293 minus parental HEK293
T9 construct: Voltage-gated sodium channel alpha subunit; In the Western blot it stood as denatured cell lysate; also called hNav 1.7-GFP-HEK293; Nav 1.7-GFP-HEK293; not shown: green fluorescent protein (GFP) at the N-terminus
Experimental: The binding of anti-Naᵥ 1.7 human antibodies to full-length Naᵥ 1.7 expressed in HEK293 cells was determined by flow cytometry (FACS). HEK293 cells were stably-transfected with full-length human Nav1.7 fused at its N-terminus to the green fluorescent protein (GFP) to generate cell line hNaᵥ 1.7-GFP-HEK293. Antibody binding to the transfected cells overexpressing Naᵥ 1.7 was compared to binding to the parental HEK293 cell line. To perform the binding experiments, adherent cells were collected using 1 mM EDTA in PBS, washed and re-suspended in cold PBS containing 5% FBS. For each binding experiment, the anti-Naᵥ 1.7 antibody (at concentrations ranging from 1 nM to 13 nM), was added to 250,000 cells in 500 μL of PBS with 5% FBS. After incubation for 20 minutes on ice, the secondary antibody, recognizing either human-Fc and conjugated to cyanine 5 (Cy5) or recognizing mouse-Fc and conjugated to allophyocyanin (APC), was then added to the cell mixture at a final secondary antibody concentration of 1.7 nM. After incubating for 20 minutes on ice, the cells were resuspended in PBS+5% FBS and then sorted and analyzed on a flow cytometer to determine relative binding by the candidate antibodies. For FACS analysis, gating was applied to examine only healthy live cells in the antibody binding experiments, and percentage stained was recorded. Staining of secondary antibodies alone to Naᵥ 1.7-GFP-HEK293 cells gave low background signals (1-2%). Specific binding was measured as the percent binding to Naᵥ 1.7-GFP-HEK293 cells minus percent binding to parental HEK293 cells.

[10] = biological target: T9, full-length human Nav1.7 fused at its …; test: cell-based or functional assay
[11] = biological target: T10, N-Term Biotin-Nav1.7 (3-1) peptide, human (human, not fully specified; N-terminal biotin attached via a G4S linker); test: ELISA on coated peptide, antibody 1 ug/ml, OD450 grade
T10 construct: ELISA peptide
T10 peptide: T6 peptide with V10F, Q11R, V15E
Summary of the method: (§2)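 Peptides coated at 4 μg/mL in PBS, or biotinylated peptides captured at 0.4 μg/mL on avidin (2 μg/mL). Antibodies at 0.1 and 1.0 μg/mL, 1 h at room temperature, detected with HRP anti-mouse or anti-human IgG and TMB at OD450. Scores at 1 μg/ml: <0.2 −; 0.2–1 +; 1–2 ++; 2–4 +++.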

[12] = biological target: T6, N-Term Biotin Nav1.7 (3-1) peptide, …; test: as above
Summary of the method: as §2

[13] = biological target: T5, N-Term Biotin Nav1.7 (3-1) peptide, …; test: ELISA on coated peptide
Experimental: (§3) Anti-Naᵥ 1.7 antibodies were tested for their ability to bind to the Naᵥ 1.7 peptides. The various peptides were coated overnight onto 96-well Nunc Immunosorp plates at a concentration of 4 μg/mL in PBS, followed by blocking for 1 hour in a suitable blocking agent. For biotinylated peptides, avidin was first coated on Nunc Immunosorp plates at 2 μg/mL in PBS overnight, followed by blocking as described, and the plate was then coated with biotinylated peptides at a concentration of 0.4 μg/mL and incubated for 1 hour at room temperature. Purified anti-Naᵥ 1.7 antibodies were diluted to a final concentration of 0.1 μg/mL and 1.0 μg/mL and added to the wells of the coated microtiter plates followed by incubation for 1 hour at room temperature. Bound antibodies were detected with horseradish peroxidase (HRP) conjugated anti-mouse or anti-human IgG (Jackson Immuno Research Lab, West Grove, Pa.) depending on the antibody species and developed by colorimetric response using tetramethylbenzidine (TMB) substrate (BD Biosciences). Absorbance was read at OD₄₅₀ on a plate reader for 0.1 second.
(§4) Values in Table 11 represent absolute binding ranges (at OD450) to plate-coated peptides for antibodies added at 1 μg/ml as follows: OD450<0.2: −; 0.2<OD450<1: +; 1<OD450<2: ++; 2<OD450<4: +++; NT: Not Tested.

[14] = biological target: T7, Native Nav1.7 (3-1) peptide, rat; test: ELISA on coated peptide
Experimental: as §3, §4

[15] = biological target: T11, C-Term Biotin Nav1.7 (3-3) peptide, mouse (mouse, C-terminal biotin attached via a G4S linker); test: SPR, captured antibody, peptide analyte
T11 construct: Synthetic peptide; also called Mouse Nav1.7 3-3 C-term biotin
T11 peptide: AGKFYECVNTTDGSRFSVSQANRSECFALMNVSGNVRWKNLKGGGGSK
Summary of the method: as §1

[16] = biological target: T9, full-length human Nav1.7 fused at its …; test: flow cytometry on Nav1.7-GFP-HEK293, antibody 3.3 nM
Experimental: The specificity of binding of anti-Naᵥ 1.7 human antibodies to full-length Naᵥ 1.7 expressed in HEK293 cells was determined by peptide competition experiments using flow cytometry.
HEK293 cells stably-transfected with full-length Naᵥ 1.7 fused at its N-terminus to GFP (Naᵥ 1.7-GFP-HEK293) were used for this study. Antibody binding to the transfected cells overexpressing Naᵥ 1.7 was compared to binding in the presence of excess peptide and to binding to the parental HEK293 cell line. To perform the binding experiments, adherent cells were collected using 1 mM EDTA in PBS, washed and re-suspended in cold PBS containing 5% FBS. For each binding experiment the anti-Naᵥ 1.7 antibody at a final concentration of 3.3 nM (in PBS/5% FBS) was added to cells either directly or after incubating for 10 min on ice with a 1000-fold molar excess (3.3 uM final concentration in PBS/5% FBS) of synthetic peptide with sequence corresponding to the loop specificity of the antibody. The antibodies designated as H4H391P, H4H443B, H4H448B, and H1M797N were preincubated as described above with a synthetic peptide corresponding to EC loop 3-1 (amino acid residues 269-338 of SEQ ID NO: 670), whereas the antibodies designated as H4H468P and H1 M852N were preincubated with a synthetic peptide corresponding to EC loop 3-3 (amino acid residues 1333-1382 of SEQ ID NO: 670). The antibody or antibody-peptide mixture was then allowed to incubate with cells for 20 min on ice, followed by addition of 500 uL of cold PBS/5% FBS. Cells were collected by centrifugation, resuspended in 500 uL of cold PBS/5% FBS, and then secondary antibody matched to the antibody isotype (either anti-human-Fc conjugated to Cyanine 5 or anti-mouse-Fc conjugated to allophyococyanin) was added. Binding was detected on the flow cytometry instrument and analyzed as percent binding using the instrument software. For FACS analysis appropriate gating was applied so that only healthy, live cells were counted. Background staining of secondary antibodies alone to Naᵥ 1.7-GFP-HEK293 cells was tested and recorded for all samples, and results ranged between 1-2% binding.

- binding result [5]: no binding
- Kd [6]: 0.257 nM
- t1/2 [6]: 36.1 min
- Kd [8]: 0.612 nM
- t1/2 [8]: 8.6 min
- % Binding Nav1.7 [9]: 3.7%
- Current blocking (Average % inhibition), IonWorks Quattro, 223 nM antibody [10]: 25.5%
- OD450 [11]: 2 to 4 od
- OD450 [12]: 2 to 4 od
- OD450 [13]: < 0.2 od
- Kd [4]: 0.218 nM
- t1/2 [4]: 101 min
B3: H4H362B (antibody, V domains shown)
VH: QVQLVESGAEVKKPGASVKVSCKASGYTFTTYGISWVRQAPGQGLEWMGWISAYNGKTNYAQKFQGRVTMTTDTSTNTAYMELRSLRFDDTAVYYCARDGGTPFYYWGQGTLVTVSS
VL: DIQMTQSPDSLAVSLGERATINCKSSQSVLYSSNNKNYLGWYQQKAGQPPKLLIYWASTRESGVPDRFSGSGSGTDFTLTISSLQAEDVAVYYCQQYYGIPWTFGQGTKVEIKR

- binding result [15]: no binding
- Kd [1]: 630 nM
- t1/2 [1]: 0.31 min
- binding result [2]: no binding
- % Binding Nav1.7 [9]: 71.8%
- Kd [3]: 47.2 nM
- t1/2 [3]: 1.3 min
- binding result [4]: no binding
- % Binding Nav1.7 (Stable Line) [16]: 89.5%
B4: H4H468P (antibody, V domains shown)
VH: QVQLVESGGGVVQPGRSLRLSCTASGFTFSVYGIHWVRQAPGKGLEWVAVIWYDGSNKYYTDSVKGRFTISRDNSKNTLYLQMNSLRAEDTALYYCAREGDLSSSSGSGGYHYVVDVWGQGTTVTVSS
VL: AIQMTQSPSSLSASVGDRVTITCRASQDIRNDLGWYQQKPGNAPKLLIYSTSSLQSGVPSRFSGSGSGTDFTLTISSLQPEDFATYYCLQDYNYPLTFGGGTKVEIK
notes: also called REGN1064

Second part, the binder before the results:

B1: H4H471P (antibody, V domains shown)
VH: QVQLVESGGGLVKPGGSLRLSCAASGVTFSDYYMTWIRQAPGKGLEWVSYISTDGRTIYYADSVKGRFTISRDNAKNSLYLQMNNLRAEDTAVYYCARGVDSDDYEDFYSYYDMDVWGQGTTVTVSS
VL: DIQMTQSPSSLSASVGDRVTITCRASQGISNYLAWFQQKPGKAPKSLIYAASSLQGGVPSRFSGSGSGTDFTLTISSLQPEDFATYYCQQYNSYPLTFGGGTKVEIK
- Kd [1]: 16 nM
- t1/2 [1]: 17 min
- binding result [2]: no binding
- Kd [3]: 0.138 nM
- t1/2 [3]: 743 min
- binding result [4]: no binding

B2: H2M799N (antibody, V domains shown)
VH: EVQLVESGGGLVQPGGSLRLSCAASGFTFSIFWMNWVRQAPGKGLEWVAKIKQDGSEKYYVDSMKGRFTISRDNVKNSLYLQMNSLRAEDTAVYYCARGVWGSYRYTSSGLDVWGQGTTVTVSS
VL: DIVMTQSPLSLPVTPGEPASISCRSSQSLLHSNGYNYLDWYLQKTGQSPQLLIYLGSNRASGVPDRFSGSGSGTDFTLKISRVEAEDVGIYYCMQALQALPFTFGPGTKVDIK
notes: Hybridoma-derived
- binding result [5]: no binding
- Kd [6]: 4.14 nM
- t1/2 [6]: 27.4 min
- binding result [7]: no binding
- Kd [8]: 9.93 nM
- t1/2 [8]: 17.5 min
- % Binding Nav1.7 [9]: 5.7%
- Current blocking (Average % inhibition), IonWorks Quattro, 223 nM antibody [10]: 6%
- OD450 [11]: 2 to 4 od
- OD450 [12]: 2 to 4 od
- OD450 [13]: < 0.2 od
- OD450 [14]: < 0.2 od
- Kd [4]: 0.815 nM
- t1/2 [4]: 106 min
